Measured values published in publication PMC3741163.

Target: CCR3 (UniProt P51677)
Sequence (P51677 whole entry): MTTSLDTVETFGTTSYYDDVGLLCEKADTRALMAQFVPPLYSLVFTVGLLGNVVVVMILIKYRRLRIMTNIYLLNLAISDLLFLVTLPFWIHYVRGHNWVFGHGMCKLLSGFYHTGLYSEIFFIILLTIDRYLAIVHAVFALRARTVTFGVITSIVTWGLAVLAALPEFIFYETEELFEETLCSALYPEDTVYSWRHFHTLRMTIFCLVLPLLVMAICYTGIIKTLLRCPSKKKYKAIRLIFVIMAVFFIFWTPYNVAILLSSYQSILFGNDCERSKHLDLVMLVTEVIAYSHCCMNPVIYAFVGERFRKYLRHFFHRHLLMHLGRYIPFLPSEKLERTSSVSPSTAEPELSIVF

IC50 for inhibition of migration of L1.2/CCR3 transfectants to 1 nM CCL11: 168 nM
B1: CCL18-6His (ligand)
chain: AQVGTNKELCCLVYTSWQIPQKFIVDYSETSPQCPKPGVILLTKRGRQICADPNKKWVQKYISDLKLNA
